To fix the notation:
B1: Humanized × [MAPT_H] mAb (Ta1505-VL46_G34T/VH11) IgG4 S228P/Kappa (CX) (antibody, V domains shown)
VH: EVQLVESGGGLVQPGGSLRLSCAASGFTFSSFALNWVRQAPGKGLEWVGHIRSKTNNYATFYAASVKDRFTVSRDDSQNTAYLQMNSLKTEDTATYYCVRRGPRDSWFGYWGQGTLVTVSS
VL: DIVMTQSPLSLPVTLGEPASISCRSSQSIVHSNTNTYLEWYLQKPGQSPQLLIYTVSNRFSGVPDRFSGSGSGTDFTLKISRVEAEDLGVYYCFQGSHLPLTFGGGTKVEIKR
B2: Humanized × [MAPT_H] mAb (Ta1505-VL46_N33Q/VH11) IgG4 S228P/Kappa (CX) (antibody, V domains shown)
VH: EVQLVESGGGLVQPGGSLRLSCAASGFTFSSFALNWVRQAPGKGLEWVGHIRSKTNNYATFYAASVKDRFTVSRDDSQNTAYLQMNSLKTEDTATYYCVRRGPRDSWFGYWGQGTLVTVSS
VL: DIVMTQSPLSLPVTLGEPASISCRSSQSIVHSQGNTYLEWYLQKPGQSPQLLIYTVSNRFSGVPDRFSGSGSGTDFTLKISRVEAEDLGVYYCFQGSHLPLTFGGGTKVEIKR
B3: Humanized × [MAPT_H] mAb (Ta1505-VL46_N33Q_G34A/VH11) IgG4 S228P/Kappa (CX) (antibody, V domains shown)
VH: EVQLVESGGGLVQPGGSLRLSCAASGFTFSSFALNWVRQAPGKGLEWVGHIRSKTNNYATFYAASVKDRFTVSRDDSQNTAYLQMNSLKTEDTATYYCVRRGPRDSWFGYWGQGTLVTVSS
VL: DIVMTQSPLSLPVTLGEPASISCRSSQSIVHSQANTYLEWYLQKPGQSPQLLIYTVSNRFSGVPDRFSGSGSGTDFTLKISRVEAEDLGVYYCFQGSHLPLTFGGGTKVEIKR
B4: Humanized × [MAPT_H] mAb (Ta1505-VL46_N33S/VH11) IgG4 S228P/Kappa (CX) (antibody, V domains shown)
VH: EVQLVESGGGLVQPGGSLRLSCAASGFTFSSFALNWVRQAPGKGLEWVGHIRSKTNNYATFYAASVKDRFTVSRDDSQNTAYLQMNSLKTEDTATYYCVRRGPRDSWFGYWGQGTLVTVSS
VL: DIVMTQSPLSLPVTLGEPASISCRSSQSIVHSSGNTYLEWYLQKPGQSPQLLIYTVSNRFSGVPDRFSGSGSGTDFTLKISRVEAEDLGVYYCFQGSHLPLTFGGGTKVEIKR
B5: Humanized × [MAPT_H] mAb (Ta1505-VL46 S28N/VH11) IgG4 S228P/Kappa (CX) (antibody, V domains shown)
VH: EVQLVESGGGLVQPGGSLRLSCAASGFTFSSFALNWVRQAPGKGLEWVGHIRSKTNNYATFYAASVKDRFTVSRDDSQNTAYLQMNSLKTEDTATYYCVRRGPRDSWFGYWGQGTLVTVSS
VL: DIVMTQSPLSLPVTLGEPASISCRSSQNIVHSNGNTYLEWYLQKPGQSPQLLIYTVSNRFSGVPDRFSGSGSGTDFTLKISRVEAEDLGVYYCFQGSHLPLTFGGGTKVEIKR
B6: Humanized × [MAPT_H] mAb (Ta1505-VL46_N33T/VH11) IgG4 S228P/Kappa (CX) (antibody, V domains shown)
VH: EVQLVESGGGLVQPGGSLRLSCAASGFTFSSFALNWVRQAPGKGLEWVGHIRSKTNNYATFYAASVKDRFTVSRDDSQNTAYLQMNSLKTEDTATYYCVRRGPRDSWFGYWGQGTLVTVSS
VL: DIVMTQSPLSLPVTLGEPASISCRSSQSIVHSTGNTYLEWYLQKPGQSPQLLIYTVSNRFSGVPDRFSGSGSGTDFTLKISRVEAEDLGVYYCFQGSHLPLTFGGGTKVEIKR

The experiment has as its target T1, phosphorylated peptide (PRHLSNVS(pS)TGSIDMVD) of Example 10 (human).
T1 sequence (peptide, phosphoserine (pS) at peptide position 9): PRHLSNVSSTGSIDMVD
Description: ELISA, pS413 peptide coated at 1 ug/ml, antibody titrated, goat anti-human-HRP, ABTS, OD405 (Example 10).
The EC50 (read off the curve) is the midpoint of the concentration-response curve. Read a low EC50 (read off the curve) as greater potency. Take B1: the EC50 (read off the curve) amounted to 0.01 µg/mL.

As to B2, the EC50 (read off the curve) came to 0.02 µg/mL. The value for B3 was 0.02 µg/mL; that for B4 was 0.02 µg/mL. The figure for B5 is 0.006 µg/mL; for B6 it is 0.01 µg/mL.
